From publication PMC9708791 come the findings set out here.

This assay deals with PER2 (V5-Per2) (UniProt O15055). Description: co-immunoprecipitation of V5-Per2 and HA-GSK3β. The note with it: reference: wild-type HA-GSK3β; sites S9.

For “GSK3β (HA-tagged, Addgene plasmid) (from UniProt P49841) HA-GSK3β S9A”, the “binding against the reference” value is listed as “lost”.
